Results as given in patent US10563181B2, “Molecular cloning and expression of cDNA encoding O-methyltransferase isolated from Mangifera indica” (COUNCIL OF SCIENTIFIC & INDUSTRIAL RESEARCH, priority 2015, dated 2020).
Read-outs that look alike come from different tables or passages of the source.

Columns and labels:
recombinant MiOMTS [1] = test: In vitro enzymatic assay of recombinant MiOMTS with candidate substrates and SAM as methyl group donor; type: biochemical, Mangifera indica; settings: 0.2 mM substrate, 0.01 mM SAM, 30° C. for 30 min; products identified by UHPLC-Orbitrap MS
Protocol: The complete ORF of MiOMTS cDNA was cloned in pGEX-4T vector and the protein was expressed as GST-tag fusion protein in E. coli BL21 (DE3) cells. The protein was purified using GST affinity chromatography and released from the tag using thrombin. […] The purified protein was assayed for its activity with furaneol, caffeic acid, catechol and protocatechuic aldehyde as substrates and S-adenosyl-L-metheonine (SAM) as methyl group donor. The methylation products of these substrates upon MiOMTS enzymatic reaction were identified and analysed on high resolution mass spectrometer. […] In contrast to furaneol and protocatechuic aldehyde, MiOMTS could not use caffeic acid and catechol as the methyl group acceptor.
(§1) The in vitro enzymatic assays were carried out in the lysis buffer containing appropriate amount of protein, 0.2 mM substrate and 0.01 mM S-adenosylmetheonine (SAM) in a final volume of 500 μl reaction. The reaction was incubated at 30° C. for 30 min. For the determination of optimum pH for the enzyme activity, the assays were performed in 50 mM citrate buffer (pH 4.0 and 5.0), 50 mM phosphate buffer (pH 6.0, 6.5, 7.0 and 7.5) and 50 mM Tris buffer (pH 8.0, 8.5 and 9.0) keeping other components in the assay same as above. Similarly, for optimum temperature the assays were performed at 15, 20, 25, 30, 35 and 40° C. Assay products were extracted twice with ethyl acetate; the organic layers were pooled, dried in a concentrator and constituted with methanol. An Accela™ ultra high performance liquid chromatography (UHPLC) system (ThermoFisher, Waltham, USA), coupled online via heated electrospray ionization source (HESI) with a Q-Exactive-Orbitrap mass spectrometer (ThermoFisher), was employed with 20 μL sample injection volume and the chromatograms were obtained by total ion monitoring in a positive ion mode. The products were separated and analysed on Hypercil GOLD C-18 reverse phase column (150 mm×3 mm i. d., particle size 5 μm, Thermo Scientific, Waltham, Mass., USA) with a linear gradient of 95% water acidified with 0.05% formic acid and 5% methanol to 80% methanol and 20% water with the flow rate of […]. The sample manager was maintained at 4° C. Identification of the substrates as well as products were done by comparing the retention time and molecular mass of authentic external standards [furaneol (CAS No. 3658-77-3), mesifuran (CAS No. 4077-47-8), protocatechuic aldehyde (CAS No. 139-85-5) and vanillin (CAS No. 121-33-5)] procured from Sigma Aldrich, USA.

MiOMTS transcripts = settings: 5DAH ethylene treated vs 20DAH conventionally ripened
Protocol: Quantitative real-time PCR was performed using Fast Start Universal SYBR Green master mix (Roche Inc. Indianapolis, Ind., USA) and elongation factor 1α as an endogenous control employing the primers mentioned earlier (Pandit et al., 2010). Transcripts of MiOMTS were amplified using primers;
Quantification was done by ViiA™ 7 Real-Time PCR System (Applied Biosystems, CA, USA) having thermal cycle programme of initial denaturation at 95° C. for 10 min with subsequent 40 cycles of 95° C. for 3 sec and 60° C. for 30 sec followed by a dissociation curve analysis of transcripts. […] The quantification was done for three independent biological replicates separately, each of which was represented by at least three technical replicates. […] The uniformity of expression across the tissues was monitored using elongation factor 1α (EF1α) gene as an endogenous control.
To get better understanding of synthesis of mesifuran during late ripening stages of Alphonso mango and its regulation at transcriptional level, the transcripts of MiOMTS were profiled during the conventional ripening of Alphonso mango. […] To further assess this at transcript level, the transcripts of MiOMTS were analyzed in the fruits which were subjected to the postharvest ethylene treatment.

recombinant MiOMTS [2] = test: Optimum pH and temperature for the activity of recombinant MiOMTS using furaneol as a substrate; type: biochemical, Mangifera indica
Protocol: In order to evaluate the optimum biochemical conditions for the activity of recombinant MiOMTS, assays were performed at varied pH and temperatures using furaneol as a substrate. […] In case of temperature, optimum activity was detected at 25° C., with retention of 60% activity at 30° C.
as §1

O=C(O)/C=C/c1ccc(O)c(O)c1 [caffeic acid]
use of substrate as methyl group acceptor (methylation) by MiOMTS (recombinant MiOMTS [1]): could not use

Oc1ccccc1O [catechol]
use of substrate as methyl group acceptor (methylation) by MiOMTS (recombinant MiOMTS [1]): could not use

C=C [ethylene]
MiOMTS transcript abundance, fold higher than conventionally ripened fruits (MiOMTS transcripts; pulp): 19 fold
MiOMTS transcript abundance, fold higher than conventionally ripened fruits (MiOMTS transcripts; skin): 82 fold

CC1=C(O)C(=O)C(C)O1 (centres unmarked) [furaneol, 4-hydroxy-2,5-dimethyl-3(2H)-furanone]
use of substrate as methyl group acceptor (methylation) by MiOMTS (recombinant MiOMTS [1]): successfully used for methylation

O=Cc1ccc(O)c(O)c1 [protocatechuic aldehyde]
use of substrate as methyl group acceptor (methylation) by MiOMTS (recombinant MiOMTS [1]): successfully used for methylation

B1: MiOMTS: O-methyltransferase enzyme protein from Mangifera indica, having SEQ ID No.3, recombinantly expressed in E. coli (protein)
chain: MGSLEVKTLLEGQAEVWQYMFGFADSMVLKSAVELRLADIIHSYGGPMSLSQIASKIDSASPNIPYLGRIMRMLARKGVFGAHRPSEGGDTTYGLTHISTWLRHDSELSLAPMILMENNLWQLAPWHYLSQCVKQGGIAFKKAHGCEMWDFASQNPEFNKLFNDALACTTKIVMRAFLSQYKEGFNNVRSLVDVGGGTGGELAEILKTYPHMKGINFDLPHVVATAPEYDGVSNVGGNMFDAIPNADVIFMKWILHDWSDEACVKILKNCRKAIPEKTGRVVLVEIVLQENGDNMFGNMDVVFDLLMFAHTTGGKERTEPEWKKLLEEGGFPRYNIINIPALPSIIEAYPL
modifications: O-methyltransferase enzyme protein sequence; O-methyltransferase peptide or enzyme sequence
optimum pH for activity (recombinant MiOMTS [2]): 7.0
optimum temperature for activity (recombinant MiOMTS [2]): 25 °C
reduction in the activity (recombinant MiOMTS [2]; 20° C.): more than 50%
retention of activity (recombinant MiOMTS [2]; 30° C., relative to 25° C.): 60%
activity (recombinant MiOMTS [2]; 40° C.): complete inactivation
activity (recombinant MiOMTS [2]; pH 4): no activity was detected
activity (recombinant MiOMTS [2]; pH 5): no activity was detected
retention of activity (recombinant MiOMTS [2]; pH 6.0, relative to pH 7.0): 70%
retention of activity (recombinant MiOMTS [2]; pH 8.0, relative to pH 7.0): 90%
reduction in the activity (recombinant MiOMTS [2]; pH 8.5): more than 50%
activity (recombinant MiOMTS [2]; pH 9): no activity was detected
